Data taken from the supplement of paper PMC9170038.

Test system: MS2 coat protein
Test: apparent KD of MS2 coat protein; designed switch direction (-1 OFF switch, 1 ON switch): -1; higher = weaker reporter binding
Outline: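 Normalised cluster fluorescence was curve-fitted, and each design's median over clusters is its apparent KD. Before this, SNAP-549-labelled MS2 coat protein was titrated from 0.7 or 1.5 nM, doubling to 3 µM, over RNA switches transcribed on Illumina chips by stalled E. coli RNA polymerase. Titrations had no input, 200 uM small-molecule ligand, or an oligonucleotide input, and steps lasted 0.8–1.5 h (lowest) to 10–20 min (highest).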

[1] = input ligand: microRNA oligo, concentration not stated
[2] = Eterna round: R95, input ligand: microRNA oligo, concentration not stated
[3] = Eterna round: R95, input ligand: FMN 200 uM
[4] = Eterna round: R95, input ligand: none

## GGUGGUAUUGUUAGGAUAUGGCAUGCCCGAGGCGUCUAGAAGGGACAUGAGGAUCACCCAUGUCUAGAAUUAAU [Eternabot (L2) Solution 53] (Eterna round: R97, puzzle: Brourd's mod of Exclusion 4)
Input ligand: FMN 200 uM
  apparent KD of MS2 coat protein: 41.2 nM
Input ligand: none
  apparent KD of MS2 coat protein: 45.5 nM

## AGACACUUAGGAUAUCAGGCAAUGCACAUGAGGAUCACCCAUGUGGUCUUGGUCCGGGACUGAGAAGGAAGAGUCC [EX5 B.10] (Eterna round: R97, puzzle: Exclusion 5)
Input ligand: FMN 200 uM
  apparent KD of MS2 coat protein: 20.1 nM
Input ligand: none
  apparent KD of MS2 coat protein: 19 nM

## UUUAUGCUAGGAUAUGCACCCUCGAACAUGAGGAUCACCCAUGUACAAUAAACGCAUGAAGCAGAAGGAGCUUCCA [EX5 A.20] (Eterna round: R97, puzzle: Exclusion 5)
Input ligand: FMN 200 uM
  apparent KD of MS2 coat protein: 56.4 nM
Input ligand: none
  apparent KD of MS2 coat protein: 37.1 nM

## AGAUGCUCGAGUCGACAUGAGGAUCACCCAUGUACAGUUAGUGAGGAUAUCUGAGACACAUAGUAGGAGAAGGCGCGAACGUGA [Ex NG3 #14] (Eterna round: R96, puzzle: Exclusion NG 3)
[1]
  apparent KD of MS2 coat protein: 58.6 nM

## UAUCGGGACUGAGGAUAUUCGUUCGAACACGAAGAAGAAGGUAGUGUCAGGGACAUGAGGAUCACCCAUGUGAUUUCAGUCCUA [JL ViennaUCT Erinle mod 3] (Eterna round: R96, puzzle: Exclusion NG 1)
Input ligand: FMN 200 uM
  apparent KD of MS2 coat protein: 149 nM
[1]
  apparent KD of MS2 coat protein: 102 nM
Input ligand: none
  apparent KD of MS2 coat protein: 165 nM

## AGUGACUUAGGAUAUUGGCAUGAAGACAUGAGGAUCACCCAUGUCCUCGUAGUCAUUCGCCGAGAAGGGAGAGAUU [Eternabot (L2) Solution 50] (Eterna round: R97, puzzle: Exclusion 5)
Input ligand: FMN 200 uM
  apparent KD of MS2 coat protein: 126 nM
Input ligand: none
  apparent KD of MS2 coat protein: 84.4 nM

## CUUGUGUAAGGAUAUGCCUGGCCGUGAGGCCAGAUUGAAUAGCAGAAGGUACAUGAGGAUCACCCAUGUACGGG [jl-ex4-4.60 ViennaUCT mod] (Eterna round: R97, puzzle: Exclusion 4)
Input ligand: FMN 200 uM
  apparent KD of MS2 coat protein: 256 nM
Input ligand: none
  apparent KD of MS2 coat protein: 376 nM

## GGAUCGAAUGUGAGGAUAUACCUAUGGAUACAUAGGUAGAAGGCACAUGAGGAUCACCCAUGUCCUAACGGUCC [Eli bmx4 4.14] (Eterna round: R97, puzzle: Brourd's mod of Exclusion 4)
Input ligand: FMN 200 uM
  apparent KD of MS2 coat protein: 479 nM
Input ligand: none
  apparent KD of MS2 coat protein: 347 nM

## UUCUGGACAGGAUAUGUACUUGAGCACUUGAGGAUCACCCAAGUCUUCAAGUACUCAGGCACAGAAGGGUUAAUUU [jl-ex5.4.66 ViennaUCT mod] (Eterna round: R97, puzzle: Exclusion 5)
Input ligand: FMN 200 uM
  apparent KD of MS2 coat protein: 58.9 nM
Input ligand: none
  apparent KD of MS2 coat protein: 25.4 nM

## AGCGUGUUAGGAUAUACACGACACUGGGUAGCGGGUGGAGGGUAGAAGGGACAUGAGGAUCACCCAUGUUCGGG [Ortere] (Eterna round: R97, puzzle: Exclusion 4)
Input ligand: FMN 200 uM
  apparent KD of MS2 coat protein: 28.5 nM
Input ligand: none
  apparent KD of MS2 coat protein: 35 nM

## CAGUACUGAGGAUAUACAUGAGGAUCACCCAUGUGAUUUGGUGCACGCGUACGUGUACGUAGAAGGCAGUACUG [JL 3.27 m5] (Eterna round: R97, puzzle: Exclusion 3)
Input ligand: FMN 200 uM
  apparent KD of MS2 coat protein: 363 nM
Input ligand: none
  apparent KD of MS2 coat protein: 24.2 nM

## CAUGAUUGGCGAGGAUAUUGUUCUACAUGGCGACGAGAAGGCGCCUGUCACAUGAGGAUCACCCAUGUGAGUCUGGUGAAUGAG [Ex NG1 #84] (Eterna round: R96, puzzle: Exclusion NG 1)
Input ligand: FMN 200 uM
  apparent KD of MS2 coat protein: 27 nM
[1]
  apparent KD of MS2 coat protein: 16.6 nM
Input ligand: none
  apparent KD of MS2 coat protein: 22.2 nM

## CUUUUGUGAGGAUAUCAGUAGUAAAAAAAUAAAAUUACUACUUAGAAGGCACAUGAGGAUCACCCAUGUUCCUC [salish99_ex4_r3_030] (puzzle: Exclusion 4)
[2]
  apparent KD of MS2 coat protein: 25.4 nM

## GAGUAGGGAGGAUAUACGUGCUCAAUCCCGCGAAGCGGGAAACAUGAGGAUCACCCAUGUAGAAGGCCCAUAAA [Inceveus] (puzzle: Exclusion 2)
[3]
  apparent KD of MS2 coat protein: 88.4 nM
[2]
  apparent KD of MS2 coat protein: 171 nM
[4]
  apparent KD of MS2 coat protein: 185 nM

## CGCUGUUGAGGAUAUGGGCGUGGGUACAUGAGGAUCACCCAUGUGUUGUCGCGCGUGGGUCUAGAAGGCGGCGGUG [-29.1, -27.2 kcal, 16% A] (Eterna round: R97, puzzle: Exclusion 5)
Input ligand: FMN 200 uM
  apparent KD of MS2 coat protein: 12.1 nM
Input ligand: none
  apparent KD of MS2 coat protein: 13.8 nM

## UACAAUGCUUUUGUAAGGUACAUGAGGAUCACCCAUGUCUCGCAAAGGCUUGAUUAUCACGUACGCGCUUGUCUUGU [Eternabot (L1) Solution 17] (Eterna round: R97, puzzle: Sensor, turn-off variant 1)
Input ligand: FMN 200 uM
  apparent KD of MS2 coat protein: 14.3 nM
Input ligand: none
  apparent KD of MS2 coat protein: 12.2 nM

## GCUGCACAUGUAGGAUAUCUGCACGAUUAGUGCAGAGAAGGACAUGAGGAUCACCCAUGUAGAUCAGCAGCAAUUAAUUUAAUU [ENG1/6-A1] (Eterna round: R96, puzzle: Exclusion NG 1)
Input ligand: FMN 200 uM
  apparent KD of MS2 coat protein: 232 nM
[1]
  apparent KD of MS2 coat protein: 241 nM
Input ligand: none
  apparent KD of MS2 coat protein: 400 nM

## CCUUUGUGAGGAUAUCGUUGGCCAGACAUGAGGAUCACCCAUGUGGCUGGAACUCAUGGACGAGAAGGCACCUCUU [Eternabot (L2) Solution 52] (Eterna round: R97, puzzle: Exclusion 5)
Input ligand: FMN 200 uM
  apparent KD of MS2 coat protein: 338 nM
Input ligand: none
  apparent KD of MS2 coat protein: 399 nM

## AAGAAACAUGAGGAUCACCCAUGUGAGGAUAUGAUAAAGAAAAGAAAAGAAAGAAGAAUCAGAAGGCACAAAGG [salish99-ex1_r3_031] (puzzle: Exclusion 1)
[3]
  apparent KD of MS2 coat protein: 129 nM
[2]
  apparent KD of MS2 coat protein: 51 nM
[4]
  apparent KD of MS2 coat protein: 54 nM

## GCUGGAAAAGGAUAUACAUAACGUGCGUCGGCACGAGAUCUACAUGAGGAUCACCCAUGUAGAAGGUUUCCAGC [EX2 #73] (Eterna round: R97, puzzle: Exclusion 2)
Input ligand: FMN 200 uM
  apparent KD of MS2 coat protein: 33.4 nM
Input ligand: none
  apparent KD of MS2 coat protein: 14.3 nM

## GGUUGGCGAGGAUAUACAUGAGGAUCACCCAUGUGAGAAAAUAAGUGAGGAAAGAAAAGUAGAAGGCGCUGACG [Mat - Exclusion 3 - Mod of Salish D53] (puzzle: Exclusion 3)
[3]
  apparent KD of MS2 coat protein: 570 nM
[2]
  apparent KD of MS2 coat protein: 55.8 nM
[4]
  apparent KD of MS2 coat protein: 37.1 nM

## AUUUUAAUAUAGGAUAUCGAAUUUAUUAAUUAUCGAGAAGGAUAAACAUGAGGAUCACCCAUGUGGUAUCAUGG [Mat - Exclusion 6 - JL Mod - D38] (puzzle: Exclusion 6)
[2]
  apparent KD of MS2 coat protein: 226 nM

## CUGUGCACGCUGCGGUCCUACAUGAGGAUCACCCAUGUGGUCUGGUGGCGUGGGUCACCGGACUUGGCUCGUCUUGG [salish99_S_TOV1_R5_063] (Eterna round: R97, puzzle: Sensor, turn-off variant 1)
Input ligand: FMN 200 uM
  apparent KD of MS2 coat protein: 22 nM
Input ligand: none
  apparent KD of MS2 coat protein: 23 nM

## UACACUGCAUGAGGAUCAAACAUGAGGAUCACCCAUGUAUAGCAGGCUUUUUGUGCGUCUUAUAAUUAUGUAGUGUA [Electric Eye 18 - Jieux - Sensor, turn-off variant 1] (Eterna round: R97, puzzle: Sensor, turn-off variant 1)
Input ligand: FMN 200 uM
  apparent KD of MS2 coat protein: 14.9 nM
Input ligand: none
  apparent KD of MS2 coat protein: 15.3 nM

## AUCGUGUGAGGAUAUCGAUGUUGGACGUCUAGGUCUAAGCGCGAGAAGGCACAUGAGGAUCACCCAUGUAAUGG [jl-ex4-4.27 ViennaUCT mod] (Eterna round: R97, puzzle: Exclusion 4)
Input ligand: FMN 200 uM
  apparent KD of MS2 coat protein: 249 nM
Input ligand: none
  apparent KD of MS2 coat protein: 910 nM

## AAUGCGAGUGUUAGGAUAUACAAGGAUCCAUAUUUGUAGAAGGAACAUGAGGAUCACCCAUGUAAGGGAAUAAA [Enususxebe] (puzzle: Brourd's mod of Exclusion 4)
[3]
  apparent KD of MS2 coat protein: 166 nM
[2]
  apparent KD of MS2 coat protein: 59.5 nM
[4]
  apparent KD of MS2 coat protein: 65.7 nM

## ACUUACUGAGGAUAUACAUAGAUUUACAUGAGGAUCACCCAUGUUCCUCUAUGUAUAAAUGUAGAAGGCAGAAGUU [Mat - Exclusion 5 - JL Mod - D56] (Eterna round: R97, puzzle: Exclusion 5)
Input ligand: FMN 200 uM
  apparent KD of MS2 coat protein: 107 nM
Input ligand: none
  apparent KD of MS2 coat protein: 21.5 nM

## GACUGCUGAGGAUAUACAUGAGGAUCACCCAUGUGCUUCAGUAUCGAAAGAUACAUUGGUAGAAGGUGGUAGUC [LRO-Excl3-08] (puzzle: Exclusion 3)
[2]
  apparent KD of MS2 coat protein: 14.9 nM

## AGUAACUAUCACGAAAGUGAUAGUUACAGCAAGUGAUAAACAUGAGGAUCACCCAUGUCCUCAUUUGCUCGUCUUAU [Sensor 3 - 12] (puzzle: Sensor v3, turn-off variant 2)
[3]
  apparent KD of MS2 coat protein: 15.1 nM
[2]
  apparent KD of MS2 coat protein: 739 nM
[4]
  apparent KD of MS2 coat protein: 12.7 nM

## GAAUCGCAUGUUAGGAUAUAUCUGUCGGAGUAUGGAUAGAAGGGACAUGAGGAUCACCCAUGUGAAGGCCGUUC [Eternabot (L1) Solution 58] (Eterna round: R97, puzzle: Brourd's mod of Exclusion 4)
Input ligand: FMN 200 uM
  apparent KD of MS2 coat protein: 210 nM
Input ligand: none
  apparent KD of MS2 coat protein: 90.1 nM

## CUGAGCUGAGGAUAUACAUGAGGAUCACCCAUGUGUUCCAGCUUGCGUACAGGCAGAUGUAGAAGGCAGUUCGG [JL-ex3-3.35 Brourd mod] (puzzle: Exclusion 3)
[2]
  apparent KD of MS2 coat protein: 38.9 nM

## CUCUUGUUAGGAUAUCAAACUGGCGGCGGAGCCGGCAGUAGUGAGAAGGGACAUGAGGAUCACCCAUGUAAGAA [Veeder] (puzzle: Exclusion 4)
[2]
  apparent KD of MS2 coat protein: 55.1 nM
